Measurements published in article PMC3098719 (Molecular cell, 2008).
Blank lines part the entries; values can stand above or below the binder they belong to.

Assays:
[1] = target: MJ1130 (Kae1-Bud32 fusion of Methanococcus jannaschii) as used for the complex with Cgi121 (Methanococcus jannaschii) (UniProt Q58530); experiment: crystal structure
[2] = target: T1, Bud32 R380E (M. jannaschii) (Methanococcus jannaschii, UniProt Q58530 328-535, R380E); experiment: pull-down
T1 sequence (looked up): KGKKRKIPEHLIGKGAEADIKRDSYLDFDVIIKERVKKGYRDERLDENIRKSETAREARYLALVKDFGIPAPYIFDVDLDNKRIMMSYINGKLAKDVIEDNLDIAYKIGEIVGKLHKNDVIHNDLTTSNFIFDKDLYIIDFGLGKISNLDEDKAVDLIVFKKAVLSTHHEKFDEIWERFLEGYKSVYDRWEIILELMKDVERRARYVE

[3] = target: T2, Bud32 V486Y (M. jannaschii) (Methanococcus jannaschii, UniProt Q58530 328-535, V486Y); experiment: pull-down
T2 sequence (looked up): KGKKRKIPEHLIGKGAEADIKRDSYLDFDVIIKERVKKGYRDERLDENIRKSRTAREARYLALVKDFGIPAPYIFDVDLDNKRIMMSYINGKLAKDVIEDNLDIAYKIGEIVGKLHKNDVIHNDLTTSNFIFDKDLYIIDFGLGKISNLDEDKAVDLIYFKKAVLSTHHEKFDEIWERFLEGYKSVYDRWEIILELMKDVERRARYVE

[4] = target: T3, Bud32 K365E (M. jannaschii) (Methanococcus jannaschii, UniProt Q58530 328-535, K365E); experiment: pull-down
T3 sequence (looked up): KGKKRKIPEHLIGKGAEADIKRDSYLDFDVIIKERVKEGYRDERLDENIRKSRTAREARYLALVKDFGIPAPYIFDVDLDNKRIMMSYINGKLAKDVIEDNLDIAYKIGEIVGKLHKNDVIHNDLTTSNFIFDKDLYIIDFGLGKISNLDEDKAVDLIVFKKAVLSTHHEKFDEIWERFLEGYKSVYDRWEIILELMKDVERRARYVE

[5] = target: T4, Bud32 K489E (M. jannaschii) (Methanococcus jannaschii, UniProt Q58530 328-535, K489E); experiment: pull-down
T4 sequence (looked up): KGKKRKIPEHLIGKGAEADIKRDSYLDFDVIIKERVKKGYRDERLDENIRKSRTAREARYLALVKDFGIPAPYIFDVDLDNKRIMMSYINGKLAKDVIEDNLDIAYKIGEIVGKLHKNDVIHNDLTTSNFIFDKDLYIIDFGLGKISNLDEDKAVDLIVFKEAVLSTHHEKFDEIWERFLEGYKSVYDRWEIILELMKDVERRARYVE

[6] = target: T5, Bud32 (residues 328-535 of Methanococcus jannaschii MJ1130), untagged (Methanococcus jannaschii, UniProt Q58530 328-535); experiment: pull-down
T5 sequence (looked up): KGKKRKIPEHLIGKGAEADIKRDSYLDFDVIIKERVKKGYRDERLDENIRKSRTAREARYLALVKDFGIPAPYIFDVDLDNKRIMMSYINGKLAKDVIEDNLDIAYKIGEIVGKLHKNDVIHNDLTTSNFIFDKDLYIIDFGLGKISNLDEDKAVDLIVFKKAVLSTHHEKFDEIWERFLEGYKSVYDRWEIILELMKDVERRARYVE

[7] = target: T6, Kae1 (residues 1-328 of Methanococcus jannaschii MJ1130), untagged (Methanococcus jannaschii, UniProt Q58530 1-328); experiment: pull-down
T6 sequence (looked up): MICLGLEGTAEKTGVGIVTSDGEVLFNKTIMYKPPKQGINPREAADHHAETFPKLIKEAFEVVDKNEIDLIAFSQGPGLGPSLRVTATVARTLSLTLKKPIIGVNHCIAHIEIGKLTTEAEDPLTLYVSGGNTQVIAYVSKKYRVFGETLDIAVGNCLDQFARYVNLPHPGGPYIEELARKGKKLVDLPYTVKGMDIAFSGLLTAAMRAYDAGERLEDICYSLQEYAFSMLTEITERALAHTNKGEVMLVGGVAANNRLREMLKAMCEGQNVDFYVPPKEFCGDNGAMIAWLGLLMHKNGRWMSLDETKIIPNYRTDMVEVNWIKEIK

[8] = target: T7, GST-Kae1 E236K (M. jannaschii) (Methanococcus jannaschii, UniProt Q58530 1-328, E236K); experiment: pull-down
T7 sequence (looked up): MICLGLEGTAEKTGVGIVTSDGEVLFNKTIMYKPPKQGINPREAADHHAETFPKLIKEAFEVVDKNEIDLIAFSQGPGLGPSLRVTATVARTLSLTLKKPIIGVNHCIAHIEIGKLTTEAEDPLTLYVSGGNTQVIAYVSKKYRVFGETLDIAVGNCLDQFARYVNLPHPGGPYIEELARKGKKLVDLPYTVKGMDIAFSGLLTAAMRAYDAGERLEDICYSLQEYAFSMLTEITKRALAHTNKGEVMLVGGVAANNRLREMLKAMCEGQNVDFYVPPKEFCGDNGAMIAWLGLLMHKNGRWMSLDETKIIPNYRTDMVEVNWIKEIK

[9] = target: T8, GST-Kae1 E233R (M. jannaschii) (Methanococcus jannaschii, UniProt Q58530 1-328, E233R); experiment: pull-down
T8 sequence (looked up): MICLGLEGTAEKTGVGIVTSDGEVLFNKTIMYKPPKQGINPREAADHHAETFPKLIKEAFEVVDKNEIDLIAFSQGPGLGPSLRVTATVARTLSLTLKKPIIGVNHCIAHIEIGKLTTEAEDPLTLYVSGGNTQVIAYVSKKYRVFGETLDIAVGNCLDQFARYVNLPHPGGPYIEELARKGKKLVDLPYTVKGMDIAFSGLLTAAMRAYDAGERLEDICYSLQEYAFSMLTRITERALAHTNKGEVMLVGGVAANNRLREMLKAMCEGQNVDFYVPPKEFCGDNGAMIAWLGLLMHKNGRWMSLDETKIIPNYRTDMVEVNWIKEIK

[10] = target: T9, GST-Kae1 (residues 1-328 of Methanococcus jannaschii MJ1130) (Methanococcus jannaschii, UniProt Q58530 1-328); experiment: pull-down
T9 sequence (looked up): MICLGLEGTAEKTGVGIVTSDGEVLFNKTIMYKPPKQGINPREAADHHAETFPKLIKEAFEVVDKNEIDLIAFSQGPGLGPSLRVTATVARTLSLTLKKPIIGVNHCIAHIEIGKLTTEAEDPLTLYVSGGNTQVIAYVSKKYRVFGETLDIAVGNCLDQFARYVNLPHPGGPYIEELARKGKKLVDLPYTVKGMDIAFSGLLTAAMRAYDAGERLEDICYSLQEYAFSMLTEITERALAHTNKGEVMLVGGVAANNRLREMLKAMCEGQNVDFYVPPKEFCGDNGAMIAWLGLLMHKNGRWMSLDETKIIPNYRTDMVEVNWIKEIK

[11] = target: the molecule itself; experiment: SEC

B7: Pcc1 A75Y (P. furiosus) (natural protein, Pyrococcus furiosus, UniProt Q8TZI1 1-82, looked up)
chain: MKAKRVQAKIEIEFPSEDVAKVVYEAVLYEHLSVPYRRSEIDFKLEGKKIILDIKATDSSALRGTVNSYLRWIKYAIDVIEV
stoichiometry N [11]: 2

B8: Pcc1 V79R (P. furiosus) (natural protein, Pyrococcus furiosus, UniProt Q8TZI1 1-82, looked up)
chain: MKAKRVQAKIEIEFPSEDVAKVVYEAVLYEHLSVPYRRSEIDFKLEGKKIILDIKATDSSALRGTVNSYLRWIKAAIDRIEV
stoichiometry N [11]: 2

B9: Pcc1 A75Y/V79R (P. furiosus) (natural protein, Pyrococcus furiosus, UniProt Q8TZI1 1-82, looked up)
chain: MKAKRVQAKIEIEFPSEDVAKVVYEAVLYEHLSVPYRRSEIDFKLEGKKIILDIKATDSSALRGTVNSYLRWIKYAIDRIEV
stoichiometry N [11]: 2

B10: Pcc1 E30R (P. furiosus) (natural protein, Pyrococcus furiosus, UniProt Q8TZI1 1-82, looked up)
chain: MKAKRVQAKIEIEFPSEDVAKVVYEAVLYRHLSVPYRRSEIDFKLEGKKIILDIKATDSSALRGTVNSYLRWIKAAIDVIEV
stoichiometry N [11]: 2

The next lines start with the values.

stoichiometry N (Cgi121 per MJ1130) [1]: 1
binding result [2]: binds
binding result [3]: binds
binding result [4]: binds
binding result [5]: binds
B1: GST-Cgi121 (Methanococcus jannaschii MJ0187) (natural protein, UniProt Q57646 1-145, looked up)
chain: MIIRGIRGARINNEIFNLGLKFQILNADVVATKKHVLHAINQAKTKKPIAKSFWMEILVRASGQRQIHEAIKIIGAKDGNVCLICEDEETFRKIYELIGGEIDDSVLEINEDKERLIREIFKIRGFGNVVERVLEKIALIELKKE

binding result [6]: binds
B2: GST-Cgi121 A138R (M. jannaschii) (natural protein, Methanococcus jannaschii, UniProt Q57646 1-145, looked up)
chain: MIIRGIRGARINNEIFNLGLKFQILNADVVATKKHVLHAINQAKTKKPIAKSFWMEILVRASGQRQIHEAIKIIGAKDGNVCLICEDEETFRKIYELIGGEIDDSVLEINEDKERLIREIFKIRGFGNVVERVLEKIRLIELKKE

binding result [6]: binds
B3: GST-Cgi121 L134E (M. jannaschii) (natural protein, Methanococcus jannaschii, UniProt Q57646 1-145, looked up)
chain: MIIRGIRGARINNEIFNLGLKFQILNADVVATKKHVLHAINQAKTKKPIAKSFWMEILVRASGQRQIHEAIKIIGAKDGNVCLICEDEETFRKIYELIGGEIDDSVLEINEDKERLIREIFKIRGFGNVVERVEEKIALIELKKE

binding result [6]: binds
B4: GST-Cgi121 L139R (M. jannaschii) (natural protein, Methanococcus jannaschii, UniProt Q57646 1-145, looked up)
chain: MIIRGIRGARINNEIFNLGLKFQILNADVVATKKHVLHAINQAKTKKPIAKSFWMEILVRASGQRQIHEAIKIIGAKDGNVCLICEDEETFRKIYELIGGEIDDSVLEINEDKERLIREIFKIRGFGNVVERVLEKIARIELKKE

binding result [7]: binds
B5: GST-Pcc1 (Pyrococcus furiosus PF2011) (natural protein, UniProt Q8TZI1 1-82, looked up)
chain: MKAKRVQAKIEIEFPSEDVAKVVYEAVLYEHLSVPYRRSEIDFKLEGKKIILDIKATDSSALRGTVNSYLRWIKAAIDVIEV

binding result [8]: binds
binding result [9]: binds
binding result [10]: binds
B6: Pcc1 (Pyrococcus furiosus PF2011), untagged (natural protein, UniProt Q8TZI1 1-82, looked up)
chain: MKAKRVQAKIEIEFPSEDVAKVVYEAVLYEHLSVPYRRSEIDFKLEGKKIILDIKATDSSALRGTVNSYLRWIKAAIDVIEV
